Measured values from patent publication US9402875B2, “Amidated dopamine neuron stimulating peptide restoration of mitochondrial activity” (University of Kentucky Research Foundation, priority 2006, dated 2016).

Columns and labels:
[1] = system: MN9D dopaminergic cells; experiment: TUNEL assay, protection against 6-OHDA toxicity; assay type: cell-based; conditions: 1 ng/mL for 1 hour before 100 μM 6-OHDA for 15 min; at 24 h
Experimental: (§1) MN9D Cell Cultures: The MN9D cell line has been described by Choi (1991) Brain Res. 552:67-76 and was a gift from Michael Zigmond. Cells were cultured in DMEM supplemented with 10% Fetal Bovine Serum (FBS, Hyclone), 50 U/mL penicillin and streptomycin. For experiments, the cells were plated on 24-well poly-D-lysine in DMEM with 1% (v/v) penicillin-streptomycin. The cells were grown at 37° C. in 5% CO2.
Terminal dUTP Nick-End Labeling (TUNEL) Assay in MN9D Cells: After treatment with DNSP-11, MN9D cells were fixed and labelled to assess degenerative nuclear changes as indicated by the extent of high-molecular weight DNA strand breaks. DNA fragmentation was detected by using steptavidin-horseradish peroxidise conjugate followed by the substrate diaminobenzidine (DAB) generating a colored precipitate. Ratios between apoptotic and total cells were determined (4 random fields/well; 4 wells/ group). Experiments were repeated 3 times.
To evaluate DNSP-11's neuroprotective properties, DNSP-11 was compared to GDNF in its protection against 6-OHDA-induced toxicity in the dopaminergic cell line, MN9D. MN9D dopaminergic cells were incubated for 1 hour with either citrate buffer (control), 1 ng/mL of DNSP-11 or GDNF prior to 100 μM 6-OHDA exposure for 15 min. […]

[2] = system: young and aged rats; conditions: Hebert et al. 1996, 1997, cited from earlier work
[3] = system: Erk1/2; experiment: ERK1/2 activation by western blot; assay type: cell-based; conditions: DNSP-11 0.1 uM or 1 uM or GDNF 50 ng/ml for 20 minutes
Experimental: MN9D and B65 cell were cultured in DMEM; 11995 (containing pyridoxol HCl; Sigma, St. Louis, Mo.) supplemented with 10% fetal bovine serum (HyClone, Logan, Utah), 50 U/mL penicillin and streptomycin with DNSP-11 (0.1 uM or 1 uM) or GDNF (50 ng/ml) for 20 minutes. The cells were then solubilized in Triton-X-100/glycerol lysis buffer and subjected to electrophoresis and western blotting as partially described previously (Jiang et al., Mol Biol Cell 14:859-70 (2003)). To detect phosphorylated Erk (#4377 Cell Signaling) and ERK (#4696 Cell Signaling) by immunoblotting, the cells were directly lysed in the sample loading buffer. Secondary IRDye 700X and IRDye800 conjugated, fluorescent antibodies (Rockland Inc.) were used to detect signal with Odyssey v3.0 scanning software. Several blots were analyzed to determine the linear range of the fluorescence signals, and quantifications were performed using densitometry analysis.

[4] = system: MN9D dopaminergic cells; experiment: Caspase-3 activity assay, protection against 6-OHDA toxicity; assay type: cell-based; conditions: 1 ng/mL for 1 hour before 100 μM 6-OHDA for 15 min; at 3 h
Experimental: as §1
Caspase-3 Activity Assay in MN9D Cells: MN9D cells were plated to 100,000 cells/well. Cell cultures were exposed to DNSP-11 (1 ng/mL) or buffer for 1 hour prior to 15 min 100 μM 6-OHDA exposure. Caspase-3 activity was monitored after 3 hours by fluorescence (excitation/emission 496/520 nm) using the Enz Chek Caspase-3 kit. Protein levels of lysed cells were measured by BCA assay (BioRad) and normalized for every experiment. Data expressed as % control and repeated a minimum of 3 times.
To evaluate DNSP-11's neuroprotective properties, DNSP-11 was compared to GDNF in its protection against 6-OHDA-induced toxicity in the dopaminergic cell line, MN9D. MN9D dopaminergic cells were incubated for 1 hour with either citrate buffer (control), 1 ng/mL of DNSP-11 or GDNF prior to 100 μM 6-OHDA exposure for 15 min. Data are +SD, one-way ANOVA with Tukey's post hoc analysis, *p<0.05, **p<0.01, ***p<0.001 vs. control; #p<0.05, ##p<0.01, ###p<0.001 vs. 6-OHDA.

[5] = system: E14 SD rat embryo primary dopaminergic neurons from the ventral mesencephalon; assay type: cell-based
Experimental: DNSP-11 treatment of Mesencephalic Cells: Timed pregnant SD rats (Harlan) were used to obtain the ventral mesencephalon from E14 fetuses. The dissected tissue was collected in cold Neurobasal™ medium and rinsed twice with cold Dulbecco's PBS. The cells were chemically (TrypLE®) and mechanically dissociated to yield a single cell suspension. The solution was centrifuged at 169 g for 6 minutes and the pellet was resuspended in Dulbecco's Modified Eagle Medium (DMEM). Cells were plated in a 25 μL micro-island at a density of 4000 cells/μL on poly-D-lysine coated 24-well plates (Sigma). Following adherence, cells were supplemented with warm NEUROBASAL™ media containing 2 mM glutamine, 1×N2, and 100 units of penicillin/streptomycin. Neurotrophic compounds were added at each media addition, including initial plating and DIV 2. A dose response of the peptides (0.03 ng to 10 ng/mL) was added to a 24-well plate following media supplementation.
The neurotrophic effects of DNSP-11 were studied by comparing its effects to the well-known effects of GDNF on the maintenance of primary mesencephalic cell cultures from E14 SD rat embryos. E14 SD rat embryo primary dopaminergic neurons from the ventral mesencephalon were grown for 5 days in vitro and neurotrophic molecules were added at each media change, including initial plating and day 2. […] These effects were similar to those observed for GDNF in these cells, including an increase in the size of TH+ neurons, which was not observed for DNSP-11 (Table 4).
In Table 1, cell survival and morphological parameters were quantified for control (citrate buffer) and experimental (0.1 ng/ml GDNF or 0.1 ng/ml DNSP-11) conditions. For morphology, five fields per well (minimum of 15 cells/field; 3-4 independent experiments) were photographed at 20× magnification and quantified using a Bioquant Image Analysis System. […] Soma size was not increased by the addition of DNSP-11. A one-way ANOVA was used to test for significance among groups, followed by a Newman-Keuls post hoc analysis. Significance between control and experimental conditions was determined at *p<0.05 and **p<0.01.

[6] = target: GAPDH (Homo sapiens, UniProt P04406); experiment: Gel filtration analysis of interaction between GAPDH and GDNF; assay type: binding; conditions: equimolar solution, pre-equilibrated 1 h, Sephacryl S-200
Chain of GAPDH (P04406 2-335 limits assumed, species assumed): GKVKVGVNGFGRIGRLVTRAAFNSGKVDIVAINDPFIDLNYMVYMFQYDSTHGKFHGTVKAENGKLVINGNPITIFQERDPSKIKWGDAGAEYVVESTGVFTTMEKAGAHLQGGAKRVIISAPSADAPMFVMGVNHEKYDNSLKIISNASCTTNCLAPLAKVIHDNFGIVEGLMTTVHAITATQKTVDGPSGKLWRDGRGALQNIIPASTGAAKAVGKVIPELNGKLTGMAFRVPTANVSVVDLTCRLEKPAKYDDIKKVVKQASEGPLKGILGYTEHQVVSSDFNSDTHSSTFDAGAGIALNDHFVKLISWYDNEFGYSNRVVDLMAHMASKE
Experimental: A gel filtration study was performed using a 120 mL Sephacryl S-200 column at a constant 1 mL/min flow rate. Individual 300 μM solutions of GAPDH (˜150 kDa; FIG. 14, dotted line) or GDNF (˜30 kDa; FIG. 14, dashed line) eluted at expected retention times for their sizes of 50 min (FIG. 14, star) and 64 min (FIG. 14, pound sign), respectively. When a pre-equilibrated (1 h), equimolar solution of GAPDH and GDNF was analyzed by gel filtration chromatography, two equally intense peaks were observed (FIG. 14, solid line) with retention times identical to the individual solutions.

interaction with GAPDH in solution [6]: does not interact
B1: GDNF: mature glial cell line-derived neurotrophic factor, homodimer of 32-42 kDa, comparator (protein, listed as Homo sapiens)
chain: SPDKQMAVLPRRERNRQAAAANPENSRGKGRRGQRGKNRGCVLTAIHLNVTDLGLGYETKEELIFRYCSGSCDAAETTYDKILKNLSRNRRLVSDKVGQACCRPIAFDDDLSFLDDNLVYHILRKHSAKRCGCI
modifications: homodimer
notes: mature glial cell line-derived neurotrophic factor, homodimer of 32-42 kDa, comparator
percent of TUNEL positive cells [1]: significant reduction | augmentation of evoked release of dopamine [2]: over 100% | increase of basal levels of DOPAC ([2]; young and aged rats): 20-25% | phosphorylation of Erk1/2 (ratio of phosphorylated to non-phosphorylated) ([3]; B65 cells): elevated levels of activated Erk | phosphorylation of Erk1/2 (ratio of phosphorylated to non-phosphorylated) ([3]; MN9D cells): elevated levels of activated Erk | caspase-3 activity [4]: significant reduction | Cell survival ([5]; 0.1 ng/ml, 5 days in vitro, control 100): *158 ± 12 | Average branches per neuron ([5]; 0.1 ng/ml, controls 3.8 ± 0.2 (GDNF), 3.1 ± 0.2 (DNSP-11)): **4.7 ± 0.2 | Soma size (um^2) ([5]; 0.1 ng/ml, controls 171 ± 4 (GDNF), 168 ± 3 (DNSP-11)): 177 ± 4 um^2 | Combined neurite length (um) ([5]; 0.1 ng/ml, controls 242 ± 12 (GDNF), 222 ± 11 (DNSP-11)): **310 ± 16 um | TH+ neuron counts ([5]; 0.03, 0.1, 1.0 and 10 ng/ml): significantly increase
